Tests used:
murine rIL-16 = molecular target: T1, murine rIL-16 (Mus musculus, UniProt O54824); assay: IL-16-stimulated T-lymphocyte migration, human CD4 D4 point mutants; format: cell-based; details: human CD4 D4 wild type or point mutant, rIL-16 10^-9 M
T1 construct: polyhistidine fusion protein containing the 119 C-terminal residues encoded by the previously reported murine cDNA; polyhistidine (cleaved yes); made in house; host or cells: Escherichia coli strain HMS 174, vector pET16b
T1 sequence (O54824 1204-1322): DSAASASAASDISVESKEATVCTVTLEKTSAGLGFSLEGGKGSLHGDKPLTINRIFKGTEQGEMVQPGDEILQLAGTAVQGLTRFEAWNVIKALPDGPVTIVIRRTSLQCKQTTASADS
Protocol: Point mutations at Leu 348 and Leu 349 in human CD4 were prepared as follows.
Initially 100 ng of wild type human CD4 cDNA (Richard Axel, Columbia University, N.Y.) contained within the mammalian expression vector pcDNA3.1(−) (Invitrogen, Carlsbad, Calif.) was subjected to the polymerase chain reaction (PCR) in the presence of 125 ng of each set of primer pairs. PCR conditions were as follows:
The time for the elongation step varied according to the relationship of 2 minutes per kilobase of plasmid DNA length. The product was then subjected to restriction digestion with the enzyme Dpn for 1 h. at 37° C. Dpn is specific for methylated nucleotides and therefore will only cut the original wide type CD4-plasmid DNA. The transformation reaction required the addition of 1 μl of the digest to 50 μl of Epicurean Blue Eschericia coli which was incubated on ice for 30 min. and finally heat shocked 42° C., 45 sec to seal the supercompent bacteria. The resultant bacteria culture was selected on ampicillin plates and sequenced to confirm mutagenesis.
Cell migration was assessed using a modified Boyden chamber. […] Cell migration is expressed as the mean % control migration.
Results from multiple experiments were analyzed using Student's t test for paired variables, and Tukey's test for multiple variables. A P value<0.05 was considered significant.
(FIGS. 10A and 10B). […] (FIGS. 11A and 11B).

HIV-1 gp120 = HIV-1 gp120 (Human immunodeficiency virus type 1 group M subtype B, UniProt P04578); details: human CD4 point mutant
Protocol: Cell migration was assessed using a modified Boyden chamber. (Center, et al., (1982) J. Immunol. 128:2563-2568; Cruikshank, et al., (1982) J. Immunol. 128:2569-2574). […] For blocking experiments, 10^−9 M murine rIL-16 with various concentrations of oligopeptides were mixed and placed in the lower well. The upper and lower wells were separated by 8 μm pore size nitrocellulose filter membrane (Neuro Probe). Following incubation (3 h, 37° C.), the membranes were removed, stained with hematoxylin, and dehydrated. Cell migration was quantified by counting the number of cells migrating beyond a depth of 40 μm. Counts were compared with control cells exposed to M199-HPS alone, which was normalized to 100%. Cell migration is expressed as the mean % control migration. All samples were tested in duplicate, with five high power fields counted in each duplicate.

B1: NLTCEVWGPTSPKLMLSLKLENKEAKVSKREKAVWVLNPEAGMWNCLLSDSGQVLLESNIKVLPTWSTPVQPM (peptide)
chain: NLTCEVWGPTSPKLMLSLKLENKEAKVSKREKAVWVLNPEAGMWNCLLSDSGQVLLESNIKVLPTWSTPVQPM
modifications: OTHER INFORMATION: Description of Artificial Sequence:IL-16 antagonist peptide
notes: human CD4 D4 with glutamine 346 to asparagine
inhibition of IL-16-stimulated T-lymphocyte migration (murine rIL-16): IL-16-inhibitory activity | inhibition of IL-16-stimulated T-lymphocyte migration (murine rIL-16; listed as human CD4 (Q346→N)): no loss in inhibition | inhibition of HIV-1 gp120-stimulated T-lymphocytes (HIV-1 gp120): no loss in inhibition
